Drawing on patent US20100260668A1 (published 2010), this text covers EC50 for 15 molecules.

To fix the notation:
B1: DVD498 (bispecific antibody, human IgG1, kappa)
heavy: not shown
light: DIQMTQSPSSLSASVGDRVTITCRASQVIRRSLAWYQQKPGKAPKLLIYAASNLASGVPSRFSGSGSGTDFTLTISSLQPEDFATYYCQQSNTSPLTFGQGTKVEIKRTVAAPSVFIFPPDIQMTQSSSYLSVSLGGRVTITCKASDHINNWLAWYQQKPGNAPRLLISGATSLETGVPSRFSGSGSGKDYTLSITSLQTEDVATYYCQQYWSIPLTFGAGTKLELKRTVAAPSVFIFPPSDEQLKSGTASVVCLLNNFYPREAKVQWKVDNALQSGNSQESVTEQDSKDSTYSLSSTLTLSKADYEKHKVYACEVTHQGLSSPVTKSFNRGEC
notes: DVD-Ig; outer AB071 (VEGF), inner AB072 (DLL4); HC long, LC long linker; also called DVD498H; DVD498L
B2: DVD474 (bispecific antibody, human IgG1, kappa)
heavy: not shown
light: DIQMTQSPSSLSASVGDRVTITCRASQVIRRSLAWYQQKPGKAPKLLIYAASNLASGVPSRFSGSGSGTDFTLTISSLQPEDFATYYCQQSNTSPLTFGQGTKVEIKRTVAAPSVFIFPPDIQMTQSPSSLSASVGDRVTITCRASQDVSTAVAWYQQKPGKAPKLLIYSASFLYSGVPSRFSGSGSGTDFTLTISSLQPEDFATTYYCQQSYTGTVTFGQGTKVEIKRTVAAPSVFIFPPSDEQLKSGTASVVCLLNNFYPREAKVQWKVDNALQSGNSQESVTEQDSKDSTYSLSSTLTLSKADYEKHKVYACEVTHQGLSSPVTKSFNRGEC
notes: DVD-Ig; outer AB071 (VEGF), inner AB015 (DLL4); HC long, LC long linker; also called DVD474H; DVD474L
B3: DVD452 (bispecific antibody, human IgG1, kappa, L234A L235A)
heavy: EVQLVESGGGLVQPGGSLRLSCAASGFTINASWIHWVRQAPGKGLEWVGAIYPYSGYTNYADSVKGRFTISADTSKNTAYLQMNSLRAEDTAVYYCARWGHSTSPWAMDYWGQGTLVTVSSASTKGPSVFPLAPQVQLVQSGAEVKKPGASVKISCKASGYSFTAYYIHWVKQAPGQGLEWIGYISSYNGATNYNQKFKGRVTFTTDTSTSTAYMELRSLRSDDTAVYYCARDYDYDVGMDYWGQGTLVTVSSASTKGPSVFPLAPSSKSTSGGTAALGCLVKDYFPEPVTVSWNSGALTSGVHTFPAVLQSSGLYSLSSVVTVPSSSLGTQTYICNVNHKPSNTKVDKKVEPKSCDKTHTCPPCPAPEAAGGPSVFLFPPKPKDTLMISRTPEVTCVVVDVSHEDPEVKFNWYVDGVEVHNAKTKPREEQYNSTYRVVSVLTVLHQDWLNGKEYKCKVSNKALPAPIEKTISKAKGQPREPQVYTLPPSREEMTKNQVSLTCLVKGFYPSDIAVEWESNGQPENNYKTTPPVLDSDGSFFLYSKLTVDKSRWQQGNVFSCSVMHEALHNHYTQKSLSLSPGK
light: DIQMTQSPSSLSASVGDRVTITCRASQVIRRSLAWYQQKPGKAPKLLIYAASNLASGVPSRFSGSGSGTDFTLTISSLQPEDFATYYCQQSNTSPLTFGQGTKVEIKRTVAAPSVFIFPPDIVMTQSPDSLAVSLGERATISCRASESVDNYGISFMKWFQQKPGQPPKLLIYAASNQGSGVPDRFSGSGSGTDFTLTISSLQAEDVAVYYCQQSKEVPWTFGGGTKVEIKRTVAAPSVFIFPPSDEQLKSGTASVVCLLNNFYPREAKVQWKVDNALQSGNSQESVTEQDSKDSTYSLSSTLTLSKADYEKHKVYACEVTHQGLSSPVTKSFNRGEC
notes: DVD-Ig; outer AB071 (VEGF), inner AB069 (DLL4); HC long, LC long linker; also called DVD452H; DVD452L
B4: DVD522 (bispecific antibody, human IgG1, kappa, lambda, L234A L235A)
heavy: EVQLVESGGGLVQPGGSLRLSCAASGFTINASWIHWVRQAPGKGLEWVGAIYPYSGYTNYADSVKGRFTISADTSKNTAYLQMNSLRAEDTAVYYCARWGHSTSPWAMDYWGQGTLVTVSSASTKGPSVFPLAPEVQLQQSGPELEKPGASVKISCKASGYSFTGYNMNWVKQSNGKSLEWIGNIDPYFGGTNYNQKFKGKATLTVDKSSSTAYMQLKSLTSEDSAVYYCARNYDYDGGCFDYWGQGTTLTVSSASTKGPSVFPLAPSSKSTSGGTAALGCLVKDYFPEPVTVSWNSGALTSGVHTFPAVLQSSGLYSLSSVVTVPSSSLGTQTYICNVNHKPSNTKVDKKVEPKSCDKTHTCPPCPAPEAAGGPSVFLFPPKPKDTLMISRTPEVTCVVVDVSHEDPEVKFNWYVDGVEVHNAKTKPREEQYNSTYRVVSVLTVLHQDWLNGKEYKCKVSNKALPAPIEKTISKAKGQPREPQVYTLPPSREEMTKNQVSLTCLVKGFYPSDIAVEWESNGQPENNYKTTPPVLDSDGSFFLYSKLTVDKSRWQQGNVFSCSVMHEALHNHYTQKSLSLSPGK
light: DIQMTQSPSSLSASVGDRVTITCRASQVIRRSLAWYQQKPGKAPKLLIYAASNLASGVPSRFSGSGSGTDFTLTISSLQPEDFATYYCQQSNTSPLTFGQGTKVEIKRTVAAPSVFIFPPQAVVTQESALTTSPGETVTLTCRSSTGAVTTSNYANWVQEKPDHLFTGLIGGTNNRAPGVPARFSGSLIGDKAALTITGAQTEDEAIYFCALWYSNHWVFGGGTKLTVLGQPKAAPSVTLFPPSSEELQANKATLVCLISDFYPGAVTVAWKADSSPVKAGVETTTPSKQSNNKYAASSYLSLTPEQWKSHRSYSCQVTHEGSTVEKTVAPTECS
notes: DVD-Ig; outer AB071 (VEGF), inner AB073 (DLL4); HC long, LC long linker; also called DVD522H; DVD522L
B5: DVD494 (bispecific antibody, human IgG1, kappa)
heavy: not shown
light: DIQMTQSPSSLSASVGDRVTITCSASQDISNYLNWYQQKPGKAPKVLIYFTSSLHSGVPSRFSGSGSGTDFTLTISSLQPEDFATYYCQQYSTVPWTFGQGTKVEIKRTVAAPSVFIFPPDIQMTQSSSYLSVSLGGRVTITCKASDHINNWLAWYQQKPGNAPRLLISGATSLETGVPSRFSGSGSGKDYTLSITSLQTEDVATYYCQQYWSIPLTFGAGTKLELKRTVAAPSVFIFPPSDEQLKSGTASVVCLLNNFYPREAKVQWKVDNALQSGNSQESVTEQDSKDSTYSLSSTLTLSKADYEKHKVYACEVTHQGLSSPVTKSFNRGEC
notes: DVD-Ig; HC long, LC long linker; also called DVD494H; DVD494L
B6: DVD528 (bispecific antibody, human IgG1, lambda)
heavy: not shown
light: DIQMTQSPSSLSASVGDRVTITCRASQVIRRSLAWYQQKPGKAPKLLIYAASNLASGVPSRFSGSGSGTDFTLTISSLQPEDFATYYCQQSNTSPLTFGQGTKVEIKRTVAAPQAVVTQESALTTSPGETVTLTCRSSTGAVTTSNYANWVQEKPDHLFTGLIGGTNNRAPGVPARFSGSLIGDKAALTITGAQTEDEAIYFCALWYSNHWVFGGGTKLTVLGQPKAAPSVTLFPPSSEELQANKATLVCLISDFYPGAVTVAWKADSSPVKAGVETTTPSKQSNNKYAASSYLSLTPEQWKSHRSYSCQVTHEGSTVEKTVAPTECS
notes: DVD-Ig; outer AB071 (VEGF), inner AB073 (DLL4); HC long, LC short linker; also called DVD528H; DVD528L
B7: DVD524 (bispecific antibody, human IgG1, lambda)
heavy: not shown
light: DIQMTQSPSSLSASVGDRVTITCSASQDISNYLNWYQQKPGKAPKVLIYFTSSLHSGVPSRFSGSGSGTDFTLTISSLQPEDFATYYCQQYSTVPWTFGQGTKVEIKRTVAAPQAVVTQESALTTSPGETVTLTCRSSTGAVTTSNYANWVQEKPDHLFTGLIGGTNNRAPGVPARFSGSLIGDKAALTITGAQTEDEAIYFCALWYSNHWVFGGGTKLTVLGQPKAAPSVTLFPPSSEELQANKATLVCLISDFYPGAVTVAWKADSSPVKAGVETTTPSKQSNNKYAASSYLSLTPEQWKSHRSYSCQVTHEGSTVEKTVAPTECS
notes: DVD-Ig; HC long, LC short linker; also called DVD524H; DVD524L
B8: DVD500 (bispecific antibody, human IgG1, kappa)
heavy: not shown
light: DIQMTQSPSSLSASVGDRVTITCSASQDISNYLNWYQQKPGKAPKVLIYFTSSLHSGVPSRFSGSGSGTDFTLTISSLQPEDFATYYCQQYSTVPWTFGQGTKVEIKRTVAAPDIQMTQSSSYLSVSLGGRVTITCKASDHINNWLAWYQQKPGNAPRLLISGATSLETGVPSRFSGSGSGKDYTLSITSLQTEDVATYYCQQYWSIPLTFGAGTKLELKRTVAAPSVFIFPPSDEQLKSGTASVVCLLNNFYPREAKVQWKVDNALQSGNSQESVTEQDSKDSTYSLSSTLTLSKADYEKHKVYACEVTHQGLSSPVTKSFNRGEC
notes: DVD-Ig; HC long, LC short linker; also called DVD500H; DVD500L
B9: DVD504 (bispecific antibody, human IgG1, kappa)
heavy: not shown
light: DIQMTQSPSSLSASVGDRVTITCRASQVIRRSLAWYQQKPGKAPKLLIYAASNLASGVPSRFSGSGSGTDFTLTISSLQPEDFATYYCQQSNTSPLTFGQGTKVEIKRTVAAPDIQMTQSSSYLSVSLGGRVTITCKASDHINNWLAWYQQKPGNAPRLLISGATSLETGVPSRFSGSGSGKDYTLSITSLQTEDVATYYCQQYWSIPLTFGAGTKLELKRTVAAPSVFIFPPSDEQLKSGTASVVCLLNNFYPREAKVQWKVDNALQSGNSQESVTEQDSKDSTYSLSSTLTLSKADYEKHKVYACEVTHQGLSSPVTKSFNRGEC
notes: DVD-Ig; outer AB071 (VEGF), inner AB072 (DLL4); HC long, LC short linker; also called DVD504H; DVD504L
B10: DVD476 (bispecific antibody, human IgG1, kappa)
heavy: not shown
light: DIQMTQSPSSLSASVGDRVTITCSASQDISNYLNWYQQKPGKAPKVLIYFTSSLHSGVPSRFSGSGSGTDFTLTISSLQPEDFATYYCQQYSTVPWTFGQGTKVEIKRTVAAPDIQMTQSPSSLSASVGDRVTITCRASQDVSTAVAWYQQKPGKAPKLLIYSASFLYSGVPSRFSGSGSGTDFTLTISSLQPEDFATTYYCQQSYTGTVTFGQGTKVEIKRTVAAPSVFIFPPSDEQLKSGTASVVCLLNNFYPREAKVQWKVDNALQSGNSQESVTEQDSKDSTYSLSSTLTLSKADYEKHKVYACEVTHQGLSSPVTKSFNRGEC
notes: DVD-Ig; HC long, LC short linker; also called DVD476H; DVD476L
B11: DVD458 (bispecific antibody, human IgG1, kappa, L234A L235A)
heavy: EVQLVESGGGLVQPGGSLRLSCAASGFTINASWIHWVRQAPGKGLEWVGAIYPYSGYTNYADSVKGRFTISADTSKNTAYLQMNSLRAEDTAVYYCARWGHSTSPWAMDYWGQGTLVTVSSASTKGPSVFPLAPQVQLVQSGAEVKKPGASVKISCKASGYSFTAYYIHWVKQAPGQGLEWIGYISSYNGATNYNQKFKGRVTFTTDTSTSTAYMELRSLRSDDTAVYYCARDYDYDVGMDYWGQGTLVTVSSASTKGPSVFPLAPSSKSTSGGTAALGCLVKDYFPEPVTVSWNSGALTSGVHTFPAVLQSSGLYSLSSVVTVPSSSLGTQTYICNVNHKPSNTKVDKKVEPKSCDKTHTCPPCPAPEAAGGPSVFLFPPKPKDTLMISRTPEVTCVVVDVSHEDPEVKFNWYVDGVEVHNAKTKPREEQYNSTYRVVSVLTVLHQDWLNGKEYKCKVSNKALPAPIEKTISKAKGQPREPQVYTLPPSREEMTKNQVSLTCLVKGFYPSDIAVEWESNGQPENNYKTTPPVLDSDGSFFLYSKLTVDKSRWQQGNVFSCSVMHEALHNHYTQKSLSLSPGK
light: DIQMTQSPSSLSASVGDRVTITCRASQVIRRSLAWYQQKPGKAPKLLIYAASNLASGVPSRFSGSGSGTDFTLTISSLQPEDFATYYCQQSNTSPLTFGQGTKVEIKRTVAAPDIVMTQSPDSLAVSLGERATISCRASESVDNYGISFMKWFQQKPGQPPKLLIYAASNQGSGVPDRFSGSGSGTDFTLTISSLQAEDVAVYYCQQSKEVPWTFGGGTKVEIKRTVAAPSVFIFPPSDEQLKSGTASVVCLLNNFYPREAKVQWKVDNALQSGNSQESVTEQDSKDSTYSLSSTLTLSKADYEKHKVYACEVTHQGLSSPVTKSFNRGEC
notes: DVD-Ig; outer AB071 (VEGF), inner AB069 (DLL4); HC long, LC short linker; also called DVD458H; DVD458L
B12: DVD480 (bispecific antibody, human IgG1, kappa)
heavy: not shown
light: DIQMTQSPSSLSASVGDRVTITCRASQVIRRSLAWYQQKPGKAPKLLIYAASNLASGVPSRFSGSGSGTDFTLTISSLQPEDFATYYCQQSNTSPLTFGQGTKVEIKRTVAAPDIQMTQSPSSLSASVGDRVTITCRASQDVSTAVAWYQQKPGKAPKLLIYSASFLYSGVPSRFSGSGSGTDFTLTISSLQPEDFATTYYCQQSYTGTVTFGQGTKVEIKRTVAAPSVFIFPPSDEQLKSGTASVVCLLNNFYPREAKVQWKVDNALQSGNSQESVTEQDSKDSTYSLSSTLTLSKADYEKHKVYACEVTHQGLSSPVTKSFNRGEC
notes: DVD-Ig; outer AB071 (VEGF), inner AB015 (DLL4); HC long, LC short linker; also called DVD480H; DVD480L
B13: DVD530 (bispecific antibody, human IgG1, kappa, lambda, L234A L235A)
heavy: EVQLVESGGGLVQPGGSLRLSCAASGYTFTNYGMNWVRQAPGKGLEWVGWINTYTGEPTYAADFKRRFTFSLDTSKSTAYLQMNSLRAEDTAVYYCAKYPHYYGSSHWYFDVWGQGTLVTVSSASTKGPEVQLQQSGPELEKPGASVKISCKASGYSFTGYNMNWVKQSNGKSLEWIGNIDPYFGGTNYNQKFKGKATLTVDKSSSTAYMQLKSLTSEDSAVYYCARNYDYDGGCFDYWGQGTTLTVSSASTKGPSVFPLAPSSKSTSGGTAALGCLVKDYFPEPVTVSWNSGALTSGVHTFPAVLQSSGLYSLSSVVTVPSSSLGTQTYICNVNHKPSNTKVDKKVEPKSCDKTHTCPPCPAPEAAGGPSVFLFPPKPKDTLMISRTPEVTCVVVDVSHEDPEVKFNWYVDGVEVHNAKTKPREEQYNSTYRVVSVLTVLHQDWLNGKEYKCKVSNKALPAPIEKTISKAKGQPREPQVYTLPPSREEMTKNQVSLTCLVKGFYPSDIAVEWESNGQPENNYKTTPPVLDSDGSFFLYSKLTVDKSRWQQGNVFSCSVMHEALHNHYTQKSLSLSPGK
light: DIQMTQSPSSLSASVGDRVTITCSASQDISNYLNWYQQKPGKAPKVLIYFTSSLHSGVPSRFSGSGSGTDFTLTISSLQPEDFATYYCQQYSTVPWTFGQGTKVEIKRTVAAPSVFIFPPQAVVTQESALTTSPGETVTLTCRSSTGAVTTSNYANWVQEKPDHLFTGLIGGTNNRAPGVPARFSGSLIGDKAALTITGAQTEDEAIYFCALWYSNHWVFGGGTKLTVLGQPKAAPSVTLFPPSSEELQANKATLVCLISDFYPGAVTVAWKADSSPVKAGVETTTPSKQSNNKYAASSYLSLTPEQWKSHRSYSCQVTHEGSTVEKTVAPTECS
notes: DVD-Ig; HC short, LC long linker; also called DVD530H; DVD530L
B14: DVD506 (bispecific antibody, human IgG1, kappa)
heavy: not shown
light: DIQMTQSPSSLSASVGDRVTITCSASQDISNYLNWYQQKPGKAPKVLIYFTSSLHSGVPSRFSGSGSGTDFTLTISSLQPEDFATYYCQQYSTVPWTFGQGTKVEIKRTVAAPSVFIFPPDIQMTQSSSYLSVSLGGRVTITCKASDHINNWLAWYQQKPGNAPRLLISGATSLETGVPSRFSGSGSGKDYTLSITSLQTEDVATYYCQQYWSIPLTFGAGTKLELKRTVAAPSVFIFPPSDEQLKSGTASVVCLLNNFYPREAKVQWKVDNALQSGNSQESVTEQDSKDSTYSLSSTLTLSKADYEKHKVYACEVTHQGLSSPVTKSFNRGEC
notes: DVD-Ig; HC short, LC long linker; also called DVD506H; DVD506L
B15: DVD482 (bispecific antibody, human IgG1, kappa)
heavy: not shown
light: DIQMTQSPSSLSASVGDRVTITCSASQDISNYLNWYQQKPGKAPKVLIYFTSSLHSGVPSRFSGSGSGTDFTLTISSLQPEDFATYYCQQYSTVPWTFGQGTKVEIKRTVAAPSVFIFPPDIQMTQSPSSLSASVGDRVTITCRASQDVSTAVAWYQQKPGKAPKLLIYSASFLYSGVPSRFSGSGSGTDFTLTISSLQPEDFATTYYCQQSYTGTVTFGQGTKVEIKRTVAAPSVFIFPPSDEQLKSGTASVVCLLNNFYPREAKVQWKVDNALQSGNSQESVTEQDSKDSTYSLSSTLTLSKADYEKHKVYACEVTHQGLSSPVTKSFNRGEC
notes: DVD-Ig; HC short, LC long linker; also called DVD482H; DVD482L

The target in one assay is T1, DLL4 ECD/His tag (R&D 1506-D4-050) (UniProt Q9NR61 27-529).
T1 construct: extracellular domain; Bought antigen coated on the ELISA plate; not shown: His tag
In words: direct bind ELISA, DLL4 on plate; DLL4 VD C-term.; HC Long, LC Long. Background: ELISA stands for enzyme-linked immunosorbent assay.
As for B1, the EC50 was 0.45 nM.

With B2, a half-maximal response (EC50) required 0.57 nM.

With B3, the response was half-maximal at 0.34 nM (EC50).

B4 yielded a concentration giving a half-maximal response (EC50) of 0.48 nM.

Turning to B5, the response was half-maximal at 39.5 nM (EC50).

In another assay the target is T1, DLL4 ECD/His tag (R&D 1506-D4-050). In words: direct bind ELISA, DLL4 on plate; DLL4 VD C-term.; HC Long, LC Short.
As for B6, the midpoint of the response, the EC50, lay at 0.81 nM.

The molecule B7 showed an EC50 of 0.22 nM.

Molecule B8 had a half-maximal effective concentration (EC50) of 0.57 nM.

For the molecule B9, the EC50 amounted to 0.53 nM.

As to B10, it took 0.3 nM to reach a half-maximal effect (EC50).

B11 had an EC50 of 1.54 nM.

For the molecule B12, the concentration for a half-maximal effect (EC50) was determined as 0.6 nM.

Another assay has the same target. In words: direct bind ELISA, DLL4 on plate; DLL4 VD C-term.; HC Short, LC Long.
B13 showed an EC50 of 0.22 nM.

In turn, B14 came in with a concentration giving a half-maximal response (EC50) of 0.32 nM.

The molecule B15 registered an EC50 of 0.36 nM.

As a reminder, the EC50 is the midpoint of the concentration-response curve. The low end stands for higher potency in that assay, the high end for lower potency in that assay.
